Assay results published in a protein production outcome set (Wang et al. 2014).

Experiment: label from the status in PepcDB records
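Note: failed if final PepcDB status was selected cloned or expressed and not failed if soluble or beyond.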

Sequence	protein production
MQLWIYGVLIRLVTPAVFVWLWLRGGKDSRYRQNWSERLALGSVDKKQHGCLVIHSVSVGETLAAKRLIEQLLRQEPGQKILITCMTPTARELIQQHFADTVSCRYWPIDSPGAAKRFVRKFKPKAVWVMETELWPQMLNQFSKANIPVALLNARLSARSAAGYRRFHWLMKKVWKQLTLVSVQNKETARRMKVLGVPDSVLFVDGNLKYDIELSVTDIEKALLWRQSCASRHVWLASSSHPGEHELLLEAHKLIQQDLSNSCLIIAPRHPEQFEVVAKMIRESGLKLARRSESNAIPEDCDVFLADSMGEMMLWGQLASASFVGGSIIERGGHNPLEVIAAGSNVMSGRHVFNFPQVYGELAKAGAVQWVNNAGEIKQAVELMQQTAVMKAQHEAAKSVLQTHQGATLRVLKRALEYTLTGSGMIKTEQSPQGLIRYDSDIFETIEDKHFTAQYWQQQKSIAGNSTGRATVWFIQQGDLGLLLRHYYRGGLVGKINKDRFLREPAEKSRAIHEFDLLLKLREIGLPVPRPVAARMEKTAVFSYKADILVEVIPGAVDVFRLLREKKLSAELWQKLGSVIKELHDTGVYHSDLNCHNLMLDDKDKAWIVDFDKCDFRENGDWKEANIQRLLRSLRKEKEKNETFYWKESRDWPELLTGYRR	failed
MICLEKVEDIPRLQELFAQILIVHHQARSDVLKVKGSKFTDKELEGVIGDANKPVFVYEDEAGTILCHLFLIIKEVSENDGPQKPIKTLFIDDLCVEEKARGQKLGEKLYQFALDYATEQECYNATLHVWNDNQGTLDFYEHLGVKPRYTEMKTVLKLEHHHHHH	failed
MLKQTSDSPVGTLFIIIEDAHITKISYDEPTNWEILAGEKGEIAIYQQLLEQLAGYFEGEREVFDLPIFLQGTPFQQRVWQALSEIPYGVVVSYKDIAIAAGSPKAVQAVGQANRANPIPILIPCHRCVKSDGALGGYNGADIDKKQYLLALEKGLRLS	failed
MSLSDDSTFGDATFVVLDFETTGLDPQVDEIIEIGAVKIQGGQIVDEYHTLIKPSREISRKSSEITGITQEMLENKRSIEEVLPEFLGFLEDSIIVAHNANFDYRFLRLWIKKVMGLDWERPYIDTLALAKSLLKLRSYSLDSVVEKLGLGPFRHHRALDDARVTAQVFLRFVEMMKKEGHHHHHH	not failed
MTTDTGELVRTNQGTSSEVSSETGTAVQTLSVLYGSQTGNAEFLASKIVDKANGQGYAAELMSLDMLTPQEAARKDRLLIVTATHDNGHMPDNAQPFWDQLQSAGSDLFKDVPFAVLAIGDSMYEDFCKAGSDLDERLGKLGGKRILDRLDCDVDYDLTSGKWIRGMLETFKTVVPKKRDNNPEDSTVPGANPAEQPKGTRREPDTATVVEARLLSAPESEKEVWHYELEVSGDSRNYRPGDSLAVIPTNNIELVEDLLGFLGLAGSEVFGEDGKTVRETLQNDYELRLPHLGIVAWLVENLAPDHPVRNLVESGDRNALEDWLWGRDMLDVLQETRTTDVDPGEFLSMLRPLQHRSYSIASSPLADGDRVHLTVSTVQYETAGRRHSGACSGFLQSAAQTKTTIKVFPLPAHEFHLPHDNSADVIMVGPGVGVAPFRGFLRDREVSQARGRNWLFFGDRHEKPSWLYQEEMEELQSNGVLNRLSVAFSRDQQGKVYVQDRIREEGDGIFAWLSGGASVYVCGGKQIAPDIDEALLAVLRSHGAMTPEKAHDYLQSLKSEGRYVKDVY	failed
MGIRRLVSVITRPIINKVNSSGQYSRVLATREDQDKASPKYMNNDKIAKKPYTYRLFSILGILSICSLLLISLLKPFNGADAPQCESIYMFPSYARIDGFDERYTPLAHKYHLYLYREQSVDREPLNGDELQLDGIPVLFIPGNAGSFRQCRSIASACSNIYFDSNTRATLRNENVRNLDFFTADFNEDFTAFHGETMLDQAEYLNDAIKYILSLYERTPDYPHPKPQSVIIVGHSMGGIVSRVMLTLKNHVPGSISTILTLSSPHAASPVTFDGDILKLYKNTNEYWRKQLSQNDSFFSKNISLVSITGGILDTTLPADYASVEDLVSLENGFTSFTTTIPDVWTPIDHLAIVWCKQLREVLARLLLESIDASKPEKVKPLNQRLQIARKLLLSGFEDYSWMNSKLNYPQENLQEFSDNFFSDYATLEMNDVLDFEMFNLEKWHNNYTKINIPSNISSTEHLHFTLLTSLDMPMIYFCTESRVNLSCITAVDSILTVPRSSKDTQFAADSSFGEAKNPFKAVSVGKNILQKYDYLMISKPTYGEFSEQEGMEDNQGFLLALLRNVSNVQIVNTTPSQILLFGEQLHLDGKDIEQVISFSNLWDSLLSYKLETKIEASNEGIASEETLFQPFIRQWVYEPFESKWHLNIINKSLDINMHNVAPFIPLNESEPRSLQLSFFIPPGMSLEAKMTINWSLTLKMLFIRYRLALASFPVAFIALVLSYQFYWYNKTSEFPSFDSTLGYILRKHGILMFFTLFLASPVVNNKLVQRILYLLDPVGLNYPFLLSERNMHANFYYLGIRDWFMSTIGILFGVMTVGLLALVSKIFGSLEILVIFLQRKLSKKNTEDKEAFDTIEHKAYGKGRLMASVLLLLLVFFHIPYQMAFVISLVIQIATCIRVALLKLSNNEQKLNLLNYNMTLLLLLLFVSAINIPIIIVFLHNVAIKWETSFRSHHNILAVAPIIFLVGNNSIFKMPNSVPLDTWDGKVTIILFVYLTVFSFIYGIRNLYWIHHLVNIICAWLLFFETIH	failed
MAKKENQQPDNHVGEVVSRSEQFIEKNMTKIGLVILGVFIIVAGIFAYKRFVSEPKAREAAAKVYLAEDKFIQELDSAALNGNGANEMGLLTVIKKYSGSDASNLAKAYAGICYYNLGEYQKAIDHLKGFSSKENMVAPSITRLIGDCYVQLKKYEEAVGYFEKAAAAASNDAITPGCLIKAGRVYEELKQYDKALAAYKQVKEKYYTSMEANTVEADIIRVKTKGAK	failed
MDKEQRNIVVFNASKRELFTSSSGYKSLQKKLRAQWKIQSIKEELTLEKLQGVKLWITAGPREKFTAAELEVLKQYLDSGGALLVMIGEGGELKYDTNINFLLEEFGIMVNNDAVIRNVYYKYFHPKEALVSNGVLNREISRAAGKVVTGVIDEENTGNNSQALTFVYPYGATLNVMKPAVAILSTGSVCFPLNRPVLAFHHSKNAGKLAVLGSCHMFSDQYLDKEENSRIMDVVFQWLTTDSIHLNQIDAEDPEITDYMMLPDTGSLSERLRVCLQEGDENPRDFTSLFDMSLLKLHTNTLPSVLDAYKQLNVKHEALQLITPQFETPLPPLQPAVFQPAFRDLPPPMLDLFDLDETFSSEKVRLAQLSNKCTDDDLEFYVRKCGDILGVTGNLDKDKRDAKHILEHVFFQVVEFKKLNEEHDVDTAEARFSMY	not failed
MEETRPIDGLTDEDIREILTRYKKIALVGASPKPERDANIVMKYLLEHGYDVYPVNPKYEEVLGRKCYPSVLDIPDKIEVVDLFVKPKLTMEYVEQAIKKGAKVVWFQYNTYNREASKKADEAGLIIVANRCMMREHERLLGEK	not failed
GTGLHCLSIERDLMKKFHLKDAFIIPTPVNNYHASLGKAAAQYLETHLQQGDLLGIGWGETISKMLENIHFETSINLSIVTLTGGVNHYLSRKQNYLHYMQGDLHIIPTPFLASTTEMAQSILSEPSVKDMLHVASLAHTAIVGIGGLSQDATIVKEEKLTLREMTYIRSQNGAGDILGQFYNTNGDLLELSHHNRLIGTPLSILRNMNHVVGVAGGTEKIDAIYGALKGKFIHTLITDEETALSLLRKDGDC	failed
IQNNEATLRCIVENLPIFFGMRTINFSNWYYINPSFESLTGYTPDEMYEDPLLWQKIHREEYAENLEQARPNLGEWTIFSMEKKDGTQIWAQTVEFLVDDLSDTARVVVFGQDITDIKRAEIETLRSLVKERELNEAKSQFVDIVSHEFRTPLTSIIGF	failed
MGGMRWLLLAKQPALGGAAALEGVMMKAPWAWALAVRLPDGRIHVERHEERALTERYPWTRLPLLRGVVALFDALSVSYRALARSAELAGGEEVPRGALWGTVA	failed
MFAVPYHQHLWRIKLALIAQNHLQLIIEVGIILYAAMVFILNLAPMSLSMVLFICIVLGIGFNIIFGLDVVALFMSFGQSEFTHPFGPIALLVTVSSLAALAIMEESGVDVRGLRGFVYLLMAGITLFGGLMHRSFLLLWLLGLFMGLFIISKSMRQRSLITVKRVAGFALIAVAGFGGLELISRVLGMTVLSPLLRIERLETFSLPSMKLVIKNTTLLGHNPMSSYWGELSSGFADGYISLPLQLILFFGLPFPVFYGILVNKKDVIDYMVPGVFGWAYDFGYITMFFLLIWCVGIIIMGLRMLSIYRERRENGSRSYLGREVLLTGALAAFMSQAIIGLFVINRTINGTALLTFIFLSSLIFANSVGLKE	failed
MAKGDQYQAHTEKYHDKKSKKSYKPVWIIISFIILITILLLPTPAGLPVMAKAALAILAFAVVMWVTEAVTYPVSATLILGLMILLLGLSPVQDLSEKLGNPKSGDIILKGSDILGTNNALSHAFSGFSTSAVALVAAALFLAVAMQETNLHKRLALLVLSIVGNKTRNIVIGAILVSIVLAFFVPSATARAGAVVPILLGMIAAFNVSKDSRLASLLIITAVQAVSIWNIGIKTAAAQNIVAINFINQNLGHDVSWGEWFLYAAPWSIIMSIALYFIMIKFMPPEHDAIEGGKELIKKELNKLGPVSHREWRLIVISVLLLFFWSTEKVLHPIDSASITLVALGIILMPKIGVITWKGVEKKIPWGTIIVFGVGISLGNVLLKTGAAQWLSDQTFGLMGLKHLPIIATIALITLFNILIHLGFASATSLASALIPVFISLTSTLNLGDHAIGFVLIQQFVISFGFLLPVSAPQNMLAYGTGTFTVKDFLKTGIPLTIVGYILVIVFSLTYWKWLGLV	failed
MILAIDLGTSGAKAAIIDSAGAVHEQTFVPYSTTKLPNGGVEQDPMQWVSAARQAVTRLPRSYSVVSFTGQMQDLICLDRAGRPLGQALLYNDARAAAEAARLNTVVPEWKDITGNRQTATSTAAMWLRLMEQSD	failed
MKTKIIGVLGLGIFGQTLAQELSNFEQDVIAIDSNPENVQAVAEVVTKAAIGDITDLAFLKHIGISDCDTVIIATGNSLESSVLAVMHCKKLGVPQVIAKARNLVYEEVLYEIGADLVISPERESGQNVAANLMRNKITDVFQIESDISVIEFKIPKSWVGKTVEQLNIRHKFDLNLIGIRKAKNKPVDTEVPINSPLEEGIILVAIANSDAFQRYDYLGYFNLEHHHHHH	not failed
MSLTLDELDSHLFKCADIIRDAVDPTDYKEYILPLVFYKAISDEYEQEREEIVEEYGEDFADNANLYDVPIVPEGHRWNDLRQESENVDEAINNAFTEFTQANPDLSGIFNANFMEAGGLTDDRLIKLVEHLSTYDLDRDSVPPDMLGEAYMDLVRHFAEEEGKSGGQFFTPPHIVQLCVRLVDDFADGMTFHDPTVGSGGMLTEAAKYYREAQGGDPSKLTFTGQEINPDIAAIARMNLSLHTLNGEIERGDSLASPGFTDGDDLERFDRVLANFPFSADWAKDDLQDDQYGRFDWHTKLPRADRGDYAFIMHIAEQLKEPDCGDESGGKAAIVIPHGVLFRKHEQRYRQPMLENDLVEAIVGLPENLFQNNSIPSAILVLNTDKPADREGEVQFIHAADEAFYEELSNQNELTDDGLDHIVENFDDWTTEERVSRTVGIEEIEENDFNLNIALYVDTTEPEEDIDVNEELAELRELQAEREEIESRMTEHMEALQYE	failed
MAVQLLENWLLKEQEKIQTKYRHLNHISVVEPNILFIGDSIVEYYPLQELFGTSKTIVNRGIRGYQTGLLLENLDAHLYGGAVDKIFLLIGTNDIGKDVPVNEALNNLEAIIQSVARDYPLTEIKLLSILPVNEREEYQQAVYIRSNEKIQNWNQAYQELASAYMQVEFVPVFDCLTDQAGQLKKEYTTDGLHLSIAGYQALSKSLKDYLY	not failed
SGIIKMAIRFDRRAYPPQITPKMCLLEWCRREKLPQPVYETVQRTIDRMFCSVVTVAEQKYQSTLWDKSKKLAEQTAAIVCLRSQGLPEGRLGEESPSLNKRKREAPDQDPGGPR	not failed
